Columns and labels:
human Mo-DCs [1] = assay: Scanning electron microscopy of Mo-DC surface morphology; format: cell-based; set-up: key to Dendrite density and lenght: (−) negligible; (+) low; (++) moderate; (+++) high
Method: Monocytes were seeded on glass slides covered with either poly-L-lysine (25 μg/ml) or fibronectin (42 μg/ml), cultured for 5 days in complete RPMI medium supplemented with 800 U/ml GM-CSF, 500 U/ml IL-4, and the C4BP isoforms α7β1, α7β0, or Factor H (10 μg/ml), and further stimulated with LPS for 48 hours in the same medium. The resulting DCs were fixed in 1% paraformaldehyde and 1.25% glutaraldehyde in cacodylate buffer for 2 h. Finally, the cells were post-fixed in 1% OsO4, and dehydrated with graded series of ethanol followed by acetone. After dehydration the cells were dried in a critical-point dryer and coated with gold before observation by scanning electron microscopy (Zeiss DSM940A).

human Mo-DCs [2] = assay: Quantitative RT-PCR of CCR7, IDO, BIC-1, SOD2 in Mo-DCs; format: cell-based; set-up: key to IDO / BIC-1: (−) negligible; (+) low; (++) moderate; (+++) high
Method: Mo-DCs (10^6/condition) were harvested at day 7 and the mRNA was extracted using the RNeasy RNA Isolation kit (Qiagen) and incubated with RNase-free DNase I (Ambion, Austin, Tex.) according to the manufacturer's protocol. A two-step real-time RT-PCR technique was used to determine the relative mRNA levels of human CCR7, BIC-1, IDO and SOD2. Reverse transcription reactions were performed with 500 ng of total RNA using the Omniscript RT kit (Qiagen). Quantification of mRNA levels was performed by real-time polymerase chain reaction (PCR) with the use of the LightCycler technology (Roche Molecular Biochemicals, Indianapolis, Ind.). The following primers were used: CCR7-f (5′-TGGGCATCTGGATACTAGC-3′) (SEQ ID NO:6), CCR7-r (5′-AAGAAAGGGTTGACGCAGC-3′) (SEQ ID NO:7); IDO-f (5′-[…]-3′) (SEQ ID NO:8); IDO-r (5′-[…]-3′) (SEQ ID NO:9); BIC-1-f (5′-[…]-3′) (SEQ ID NO:10), BIC-1-r (5′-[…]-3′) (SEQ ID NO:11); SOD2-f (5′-GACAAACCTCAGCCCTAAC-3′) (SEQ ID NO:12), SOD2-r (5′-[…]-3′) (SEQ ID NO:13), yielding products of 435, 227, 296 bp, and 248 bp, respectively. These gene-specific primer pairs were designed using Oligo 4.0 and Primer 3 software packages (MBI, Cascade, Colo.) and selected to prevent primer-dimer formation.
All samples were normalized with the use of the following primer set for the constitutively expressed human cyclophilin gene: CypA-f (5′-[…]-3′) (SEQ ID NO:14) and CypA-r (5′-CACCACATGCTTGCCATCC-3′) (SEQ ID NO:15) (Pluvinet R. et al., 2004, Blood. 104: 3642-3646). All primers were purchased from Bonsai Technologies (Copenhagen, Denmark).
PCR amplifications were performed in a 20 μl volume containing 2 μl ready-to-use reaction mix, 10×DNA Master SYBR Green I (Roche Molecular Biochemicals); MgCl2 (3 mM for CCR7; 4 mM for BIC-1 and SOD2, and 5 mM for IDO); 0.15 μM of each primer; 5% dimethyl sulfoxide (DMSO); and 75 ng cDNA as template. The amplification program used an initial denaturation at 95° C. for 10 min, followed by 45 cycles: 95° C. for 1 sec; 58° C. (CCR7 and SOD2)/60° C. (BIC-1 and IDO) for 5 sec; 72° C. for 10 sec.

LPS-matured human Mo-DCs = assay: DC cytokine secretion (Th1/Th2 Flow cytomix Multiplex); format: cell-based; set-up: key to IL-12 / IL-6 / IL-8 / IL-10 / TNF-α / IFN-γ: (−) negligible; (+) low; (++) moderate; (+++) high
Method: Concentrations of IL-12p70, TNF-α, IFN-γ, IL-10, IL-6 and IL-8, were determined from DC supernatants treated with the C4BP isoforms α7β1 and α7β0 using the Th1/Th2 Flow cytomix Multiplex kit (Bender-Medsystems, Viena, Austria), according to the manufacturer's instructions.

NSG immunodeficient mice = assay: Human xeno-graft-versus-host disease (xeno-GvHD) model; format: in vivo; conditions: co-transfer or late infusion of treated monocyte-derived DCs (5×10^5/mouse) with human PBMCs; versus PBMCs alone
Source text: We assessed the in vivo tolerogenic or regulatory capacity of C4BP(β^−)-treated or Factor H-treated monocyte-derived DCs in a human xeno-graft-versus-host disease (xeno-GvHD) model (King et al. (2009) Clin. Exp. Immunol. 157: 104-118). Intravenous injection of human peripheral blood mononuclear cells (PBMCs; 10×10^6/mouse) induced xeno-GvHD in NSG immunodeficient mice (The Jackson Laboratory) (8-12 weeks of age) (median survival time 30-40 days).

allogeneic CD3+ T cells = assay: Mixed leukocyte reaction ([3H]-thymidine incorporation); format: cell-based, human; set-up: key to Alloproliferation (T CD3^+): (−) negligible; (+) low; (++) moderate; (+++) high
Method: CD3^+ T cells (10^5/well) and C4BP-treated (α7β1 and α7β0), or Factor H-treated, and LPS-activated Mo-DCs were seeded in a 96-well round-bottom plate at various DC:T cell ratios (1:40, 1:80 and 1:160) and cultured in X-VIVO 15 medium (Biowittaker, Walkersville, Md.) supplemented with 100 μg/ml of streptomycin, 100 IU/ml of penicillin and 2 mM L-glutamine (all from Invitrogen) plus 2% Human AB Serum. Allospecific proliferation was measured after 5 days of incubation. At day 4, the […] [^3H]-thymidine (1 μCi/well, Perkin Elmer, Boston, Mass.) was added, followed by incubation for another 16 h. Labeled cells were then harvested onto glass-fiber filters with a Filtermate Harvester (Packard, Meriden, Conn.), and the T cell proliferation rate was determined by the amount of [^3H]-thymidine incorporation, which was measured in a TopCount NXT counter (Packard). Results are reported as the mean cpm±SD of thymidine incorporation in quadruplicate culture wells.

[3] = transcriptional profile, treated and LPS-induced DCs
[4] = cytokine, treated and LPS-induced DCs
[5] = pre-treated at 2 μg/ml, matured with LPS

B1: C4BP α7β1: major C4BP isoform, 7 identical α-chains and 1 β-chain, purified from pooled human plasma (protein, UniProt P04003 49-597; P20851 18-252, looked up)
C4b-binding protein alpha …: NCGPPPTLSFAAPMDITLTETRFKTGTTLKYTCLPGYVRSHSTQTLTCNSDGEWVYNTFCIYKRCRHPGELRNGQVEIKTDLSFGSQIEFSCSEGFFLIGSTTSRCEVQDRGVGWSHPLPQCEIVKCKPPPDIRNGRHSGEENFYAYGFSVTYSCDPRFSLLGHASISCTVENETIGVWRPSPPTCEKITCRKPDVSHGEMVSGFGPIYNYKDTIVFKCQKGFVLRGSSVIHCDADSKWNPSPPACEPNSCINLPDIPHASWETYPRPTKEDVYVVGTVLRYRCHPGYKPTTDEPTTVICQKNLRWTPYQGCEALCCPEPKLNNGEITQHRKSRPANHCVYFYGDEISFSCHETSRFSAICQGDGTWSPRTPSCGDICNFPPKIAHGHYKQSSSYSFFKEEIIYECDKGYILVGQAKLSCSYSHWSAPAPQCKALCRKPELVNGRLSVDKDQYVEPENVTIQCDSGYGVVGPQSITCSGNRTWYPEVPKCEWETPEGCEQVLTGKRLMQCLPNPEDVKMALEVYKLSLEIEQLELQRDSARQSTLDKEL
C4b-binding protein beta chain: SDAEHCPELPPVDNSIFVAKEVEGQILGTYVCIKGYHLVGKKTLFCNASKEWDNTTTECRLGHCPDPVLVNGEFSSSGPVNVSDKITFMCNDHYILKGSNRSQCLEDHTWAPPFPICKSRDCDPPGNPVHGYFEGNNFTLGSTISYYCEDRYYLVGVQEQQCVDGEWSSALPVCKLIQEAPKPECEKALLAFQESKNLCEAMENFMQQLKESGMTMEELKYSLELKKAELKAKLL
With B1 the “surface morphology of Mo-DCs” value (human Mo-DCs [1]; SEM after 48 h LPS maturation) was “analogous appearance than untreated Mo-DCs”, the CCR7 transcript level (human Mo-DCs [2]; RT-qPCR, pretreated, LPS-matured Mo-DCs) was “but not with C4BP α7β1, significantly down-regulated” and the “release of cytokines (IL-12p70, IL-10, IL-8, IL-6, TNF-α, IFN-γ)” value (LPS-matured human Mo-DCs; pre-treated Mo-DCs matured with LPS, C4BP 2 μg/ml, Factor H 5 μg/ml) was “the same cytokine levels than untreated Mo-DCs”. For the same molecule, the survival time (NSG immunodeficient mice) was “no significant protection” and the “allogeneic T cell proliferation” value (allogeneic CD3+ T cells; Mo-DCs pre-incubated and matured with LPS, DC:T 1:40, 1:80, 1:160, 5 days) was “maximal allogeneic T cell proliferation”.

B2: C4BP (β^−): C4BP isoforms lacking beta chain: C4BP (α7β0) or C4BP (α6β0) (protein, UniProt P04003 49-597, looked up)
C4b-binding protein alpha …: NCGPPPTLSFAAPMDITLTETRFKTGTTLKYTCLPGYVRSHSTQTLTCNSDGEWVYNTFCIYKRCRHPGELRNGQVEIKTDLSFGSQIEFSCSEGFFLIGSTTSRCEVQDRGVGWSHPLPQCEIVKCKPPPDIRNGRHSGEENFYAYGFSVTYSCDPRFSLLGHASISCTVENETIGVWRPSPPTCEKITCRKPDVSHGEMVSGFGPIYNYKDTIVFKCQKGFVLRGSSVIHCDADSKWNPSPPACEPNSCINLPDIPHASWETYPRPTKEDVYVVGTVLRYRCHPGYKPTTDEPTTVICQKNLRWTPYQGCEALCCPEPKLNNGEITQHRKSRPANHCVYFYGDEISFSCHETSRFSAICQGDGTWSPRTPSCGDICNFPPKIAHGHYKQSSSYSFFKEEIIYECDKGYILVGQAKLSCSYSHWSAPAPQCKALCRKPELVNGRLSVDKDQYVEPENVTIQCDSGYGVVGPQSITCSGNRTWYPEVPKCEWETPEGCEQVLTGKRLMQCLPNPEDVKMALEVYKLSLEIEQLELQRDSARQSTLDKEL
With B2 the “Dendrite density and lenght” value (human Mo-DCs [1]; morphology, treated and LPS-induced DCs) was “+”, the BIC-1 (human Mo-DCs [2]; [3]) was “+” and the IDO (human Mo-DCs [2]; [3]) was “−”. The IFN-γ (LPS-matured human Mo-DCs; [4]) was “−”, the IL-6 (LPS-matured human Mo-DCs; [4]) was “+” and the IL-8 (LPS-matured human Mo-DCs; [4]) was “++”. For the same molecule, the IL-10 (LPS-matured human Mo-DCs; [4]) was “+++”, the IL-12 (LPS-matured human Mo-DCs; [4]) was “−” and the TNF-α (LPS-matured human Mo-DCs; [4]) was “+”. The “production of IL-10” value (LPS-matured human Mo-DCs; [5]) was “increased the production”, the “release of IFN-γ” value (LPS-matured human Mo-DCs; [5]) was “prevented the release” and the “release of IL-6” value (LPS-matured human Mo-DCs; [5]) was “reduced the release”. The “release of IL-8” value (LPS-matured human Mo-DCs; [5]) was “reduced the release”, the “release of IL-12p70” value (LPS-matured human Mo-DCs; [5]) was “prevented the release” and the “release of TNF-α” value (LPS-matured human Mo-DCs; [5]) was “prevented the release”. The survival time (NSG immunodeficient mice) was “significantly prolonged survival time” and the “Alloproliferation (T CD3^+)” value (allogeneic CD3+ T cells; functional assay, treated and LPS-induced DCs) was “+”.

Source: patent US10106589B2, “Compositions and methods for immunomodulation” (FUNDACIO INSTITUT D'INVESTIGACIO BIOMEDICA DE BELLVITGE …, priority 2011, dated 2018)
